According to paper PMC3691600, “Conversion of fatty aldehydes into alk (a/e)nes by in vitro reconstituted cyanobacterial aldehyde-deformylating oxygenase with the cognate electron transfer system” (Biotechnology for Biofuels, 2013):

Target: Aldehyde-deformylating oxygenase (Synpcc7942_1593) from Synechococcus elongatus PCC7942 (Synechococcus elongatus PCC7942) (UniProt Q54764)
Sequence (Q54764 whole entry): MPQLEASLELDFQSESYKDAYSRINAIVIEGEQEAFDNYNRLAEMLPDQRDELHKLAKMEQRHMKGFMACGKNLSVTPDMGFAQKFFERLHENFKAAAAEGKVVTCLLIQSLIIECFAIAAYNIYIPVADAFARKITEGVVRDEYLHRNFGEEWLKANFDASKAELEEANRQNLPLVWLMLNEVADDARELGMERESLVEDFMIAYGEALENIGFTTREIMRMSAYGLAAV

Chain of Spinach ferredoxin (P00221 51-147): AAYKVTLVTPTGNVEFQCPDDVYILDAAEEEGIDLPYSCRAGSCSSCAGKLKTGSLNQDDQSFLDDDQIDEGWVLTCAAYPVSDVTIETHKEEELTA

Yield of n-pentadecane by ADO 1593 with Fd (spinach) + FNR (PCC7942) + NADPH: 13.9 µM
Yield of n-pentadecane by ADO 1593 with Fd (spinach) + FNR (spinach) + NADPH: 15.7 µM
Substance: Spinach ferredoxin (from UniProt P00221 51-147) (natural protein)
